[ ]: non-standard residue; d: D form. Phe(4-Ac) = CC(=O)c1ccc(C[C@H](N)C(=O)O)cc1
Target: beta Klotho and FGFR1c (Fibroblast Growth Factor Receptor isoform 1c) expressed on the cell surface of a proprietary stable cell line (HEK293)
Test: cell-based or functional assay

Row | Binder | Average Fold Loss Potency Relative to bFGF-21-Q108-30KPEG, Elk1 luciferase reporter assay | EC50 (ng/mL), STEADY-GLO Elk1 luciferase reporter assay | Emax (%) relative to WT bFGF-21, Elk1 luciferase reporter assay | Fold loss potency relative to WT bFGF21, Elk1 luciferase reporter assay
1 | bFGF-21-Q108-30KPEG (ligand) HPIPDSSPLLQFGGQVRQRYLYTDDAQETEAHLEIRADGTVVGAARQSPESLLELKALKPGVIQILGVKTSRFLCQGPDGKLYGSLHFDPKACSFRELLLEDGYNVY[Phe(4-Ac)](PEG 30 kDa)SETLGLPLRLPPQRSSNRDPAPRGPARFLPLPGLPAAPPDPPGILAPEPPDVGSSDPLSMVGPSYGRSPSYTS | 1 fold | 147 ng/mL | 73% | 4 fold
2 | bFGF-21-R131-30KPEG (ligand, not fully specified; also: PEG: linear aminooxy-PEG) HPIPDSSPLLQFGGQVRQRYLYTDDAQETEAHLEIRADGTVVGAARQSPESLLELKALKPGVIQILGVKTSRFLCQGPDGKLYGSLHFDPKACSFRELLLEDGYNVYQSETLGLPLRLPPQRSSNRDPAP[Phe(4-Ac)](PEG 30 kDa)GPARFLPLPGLPAAPPDPPGILAPEPPDVGSSDPLSMVEPSYGRSPSYTS | – | 556 ng/mL | 38% | 14 fold
3 | bFGF-21-Q108-30KPEG G170S (ligand) HPIPDSSPLLQFGGQVRQRYLYTDDAQETEAHLEIRADGTVVGAARQSPESLLELKALKPGVIQILGVKTSRFLCQGPDGKLYGSLHFDPKACSFRELLLEDGYNVY[Phe(4-Ac)](PEG 30 kDa)SETLGLPLRLPPQRSSNRDPAPRGPARFLPLPGLPAAPPDPPGILAPEPPDVGSSDPLSMVSPSYGRSPSYTS | 0.8 fold | – | – | –
4 | bFGF-21-Q108-30KPEG G170A (ligand) HPIPDSSPLLQFGGQVRQRYLYTDDAQETEAHLEIRADGTVVGAARQSPESLLELKALKPGVIQILGVKTSRFLCQGPDGKLYGSLHFDPKACSFRELLLEDGYNVY[Phe(4-Ac)](PEG 30 kDa)SETLGLPLRLPPQRSSNRDPAPRGPARFLPLPGLPAAPPDPPGILAPEPPDVGSSDPLSMVAPSYGRSPSYTS | 1.7 fold | – | – | –

Now from value to binder:

Row | Average Fold Loss Potency Relative to bFGF-21-Q108-30KPEG, Elk1 luciferase reporter assay | EC50 (ng/mL), STEADY-GLO Elk1 luciferase reporter assay | Emax (%) relative to WT bFGF-21, Elk1 luciferase reporter assay | Fold loss potency relative to WT bFGF21, Elk1 luciferase reporter assay | Binder
5 | 3.7 fold | – | – | – | bFGF-21-Q108pAF-30KPEG-G170E (ligand) HPIPDSSPLLQFGGQVRQRYLYTDDAQETEAHLEIRADGTVVGAARQSPESLLELKALKPGVIQILGVKTSRFLCQGPDGKLYGSLHFDPKACSFRELLLEDGYNVY[Phe(4-Ac)](PEG 30 kDa)SETLGLPLRLPPQRSSNRDPAPRGPARFLPLPGLPAAPPDPPGILAPEPPDVGSSDPLSMVEPSYGRSPSYTS
6 | – | 347 ng/mL | 50% | 9 fold | bFGF-21-G77-30KPEG (ligand, not fully specified; also: PEG: linear aminooxy-PEG) HPIPDSSPLLQFGGQVRQRYLYTDDAQETEAHLEIRADGTVVGAARQSPESLLELKALKPGVIQILGVKTSRFLCQ[Phe(4-Ac)](PEG 30 kDa)PDGKLYGSLHFDPKACSFRELLLEDGYNVYQSETLGLPLRLPPQRSSNRDPAPRGPARFLPLPGLPAAPPDPPGILAPEPPDVGSSDPLSMVEPSYGRSPSYTS
7 | 8.7 fold | – | – | – | bFGF-21-Q108-30KPEG G170D (ligand) HPIPDSSPLLQFGGQVRQRYLYTDDAQETEAHLEIRADGTVVGAARQSPESLLELKALKPGVIQILGVKTSRFLCQGPDGKLYGSLHFDPKACSFRELLLEDGYNVY[Phe(4-Ac)](PEG 30 kDa)SETLGLPLRLPPQRSSNRDPAPRGPARFLPLPGLPAAPPDPPGILAPEPPDVGSSDPLSMVDPSYGRSPSYTS
8 | – | 537 ng/mL | 57% | 14 fold | bFGF-21-K91-30KPEG (ligand, not fully specified; also: PEG: linear aminooxy-PEG) HPIPDSSPLLQFGGQVRQRYLYTDDAQETEAHLEIRADGTVVGAARQSPESLLELKALKPGVIQILGVKTSRFLCQGPDGKLYGSLHFDP[Phe(4-Ac)](PEG 30 kDa)ACSFRELLLEDGYNVYQSETLGLPLRLPPQRSSNRDPAPRGPARFLPLPGLPAAPPDPPGILAPEPPDVGSSDPLSMVEPSYGRSPSYTS
